The values that follow are results of earlier work, collected in PMC3491057, “Proliferating Cell Nuclear Antigen (PCNA) Interactions in Solution Studied by NMR” (PLoS ONE, 2012).

As a reminder, the Kd is the constant that tells how readily two partners part at equilibrium.

The data set concerns the target T1, human PCNA (Homo sapiens, UniProt P12004).
T1 construct: His6 tag with PreScission protease cleavage site (N, cleaved yes); made in house; host or cells: E. coli
To be noted: PIP-box fragments. An excerpt:
The CDK inhibitor p21 mediates the cellular response to DNA damage by arresting the cell cycle at the G1 phase, inhibiting the progression into the S phase and thus DNA replication. It is an intrinsically disordered protein with an N-terminal sequence similar to other CDK-inhibitory proteins (including p27^Kip1, p57^Kip2, and p27^XIC1) and a C-terminal region containing a PIP-box. […] The smallest p21 fragment still competing with p21^20 ... || We have characterized the thermodynamics of the p21^20 and p21^12 peptides binding to PCNA by Isothermal Titration Calorimetry (ITC) in the same buffer (PBS pH 7.0) and at the same temperature (35°C) as the NMR experiments described below (Figure 3 and Figure S2). To allow comparison with data in the literature for the p21^20 [34], ITC experiments were also carried out at 30°C.

T1 sequence (P12004 whole entry): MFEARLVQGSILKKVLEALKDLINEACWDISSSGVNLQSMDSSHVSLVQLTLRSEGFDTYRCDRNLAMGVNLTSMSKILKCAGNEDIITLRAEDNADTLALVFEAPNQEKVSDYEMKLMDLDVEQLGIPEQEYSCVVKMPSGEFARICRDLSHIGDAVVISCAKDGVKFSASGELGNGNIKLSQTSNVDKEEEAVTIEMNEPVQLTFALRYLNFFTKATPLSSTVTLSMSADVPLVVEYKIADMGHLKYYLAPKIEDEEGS

Regarding “p66^22: PIP-box fragment of p66, subunit 3 of human replicative DNA polymerase-δ (POLD3) (KANRQVSITGFFQRK)”, the Kd is 1.5 µM.

As to “Fen-1^22: PIP-box fragment of Flap endonuclease 1 (SRQGSTQGRLDDFFKVTGSL)”, the Kd was 60 µM.
